Assay results taken from patent publication US20220259301A1.

Target: human IL-23 (human) (UniProt Q9NPF7)
Sequence of UniProt Q9NPF7 (Q9NPF7 20-189, chain 1 of 2): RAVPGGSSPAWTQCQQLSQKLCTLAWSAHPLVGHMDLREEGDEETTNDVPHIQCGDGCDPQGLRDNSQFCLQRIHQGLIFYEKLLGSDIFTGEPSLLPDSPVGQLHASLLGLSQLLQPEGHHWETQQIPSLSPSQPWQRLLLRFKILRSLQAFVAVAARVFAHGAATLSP
Sequence of UniProt Q9NPF7 (chain, as listed by the source, chain 2 of 2): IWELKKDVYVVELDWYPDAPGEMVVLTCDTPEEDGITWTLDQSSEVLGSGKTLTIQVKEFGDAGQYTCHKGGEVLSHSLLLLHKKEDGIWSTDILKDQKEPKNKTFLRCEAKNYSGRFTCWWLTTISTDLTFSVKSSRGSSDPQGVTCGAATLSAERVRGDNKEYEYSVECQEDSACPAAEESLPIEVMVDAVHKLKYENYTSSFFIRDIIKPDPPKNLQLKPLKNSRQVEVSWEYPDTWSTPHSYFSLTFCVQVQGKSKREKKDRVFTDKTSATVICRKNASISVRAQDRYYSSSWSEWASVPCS

ustekinumab (antibody) showed an IL-23 stimulated IL-17 production of 167 pM.

B1: Risankizumab (antibody, V domains shown)
VH: QVQLVQSGAEVKKPGSSVKVSCKASGYTFTDQTIHWMRQAPGQGLEWIGYIYPRDDSPKYNENFKGKVTITADKSTSTAYMELSSLRSEDTAVYYCAIPDRSGYAWFIYWGQGTLVTVSS
VL: DIQMTQSPSSLSASVGDRVTITCKASRDVAIAVAWYQQKPGKVPKLLIYWASTRHTGVPSRFSGSGSRTDFTLTISSLQPEDVADYFCHQYSSYPFTFGSGTKLEIKR
B1 was tested, and the IL-23 stimulated IL-17 production was < 10 pM.
